# Assay results taken from patent US20230265198A1 (TWIST BIOSCIENCE, published 2023).
# Biological target: neuropilin-1 (NRP1), analyte in SPR (UniProt O14786 22-644, limits assumed)
# Assay: SPR, Carterra LSA, antibody coupled
# Protocol: SPR experiments were performed on a Carterra LSA SPR biosensor equipped with a HC30M chip at 25° C. in HBS-TE. Antibodies were diluted to 10 μg/mL and amine-coupled to the sensor chip by EDC/NHS activation, followed by ethanolamine HCl quenching. Increasing concentrations of analyte were flowed over the sensor chip in HBS-TE with 0.5 mg/mL BSA with 5-minute association and 15-minute dissociation. Following each injection cycle the surface was regenerated with 2× 30-second injections of IgG elution buffer (Thermo). Data were analyzed in Carterra's Kinetics Tool software with 1:1 binding model.
Binder,binding result,Kd [nM],koff [s⁻¹],kon [M⁻¹ s⁻¹]
NRP1-6 (VHH) VHH: EVQLVESGGGLVQPGGSLRLSCAASGLTYTMNWFRQAPGKEREFVAGFAGIGTVTSYADSVKGRFTISADNSKNTAYLQMNSLKPEDTAVYYCSGFDGYSGSDWGQGTLVTVSS,no binding,–,–,–
NRP1-25 (VHH) VHH: EVQLVESGGGLVQPGGSLRLSCAASGRTSNIYAMGWFRQAPGKERELVAAIRWSGVETYYADSVKGRFTISADNSKNTAYLQMNSLKPEDTAVYYCAADRMYRPVGNQYDWGQGTLVTVSS,–,831,0.00969,11700
NRP1-8 (VHH) VHH: EVQLVESGGGLVQPGGSLRLSCAASGFPLDDYAMGWFRQAPGKEREFVAAINWSGGSAVYADSVKGRFTISADNSKNTAYLQMNSLKPEDTAVYYCMRGGSYGDYGGYWGQGTLVTVSS,–,91.1,0.00283,31100
"NRP1-115 (antibody, IgG2, V domains shown) VH: EVQLLESGGGLVQPGGSLRLSCAASGFTFGHYEMDWVRQAPGKGLEWVSSIDDRGRYTYYADSVKGRFTISRDNSKNTLYLQMNSLRAEDTAVYYCARSKIAFDYWGQGTLVTVSS VL: DIQMTQSPSSLSASVGDRVTITCRASQNIRSYLNWYQQKPGKAPKLLIYGRNKRPSGVPSRFSGSGSGTDFTLTISSLQPEDFATYYCQQSYENPLTFGQGTKVEIK",–,87.4,0.00951,109000

# Biological target: T1, neuropilin-1 (NRP1) on HEK293 cells overexpressing NRP1 (UniProt O14786 22-923, limits assumed)
# T1 construct: whole, on cells
# Assay: flow cytometry, HEK293-NRP1 vs HEK293
row,Binder,100 nM FACS (MFI Ratio)
1,NRP1-6 (VHH) VHH: EVQLVESGGGLVQPGGSLRLSCAASGLTYTMNWFRQAPGKEREFVAGFAGIGTVTSYADSVKGRFTISADNSKNTAYLQMNSLKPEDTAVYYCSGFDGYSGSDWGQGTLVTVSS,0.5
2,NRP1-25 (VHH) VHH: EVQLVESGGGLVQPGGSLRLSCAASGRTSNIYAMGWFRQAPGKERELVAAIRWSGVETYYADSVKGRFTISADNSKNTAYLQMNSLKPEDTAVYYCAADRMYRPVGNQYDWGQGTLVTVSS,8.9
3,NRP1-8 (VHH) VHH: EVQLVESGGGLVQPGGSLRLSCAASGFPLDDYAMGWFRQAPGKEREFVAAINWSGGSAVYADSVKGRFTISADNSKNTAYLQMNSLKPEDTAVYYCMRGGSYGDYGGYWGQGTLVTVSS,3.1
4,"NRP1-115 (antibody, IgG2, V domains shown) VH: EVQLLESGGGLVQPGGSLRLSCAASGFTFGHYEMDWVRQAPGKGLEWVSSIDDRGRYTYYADSVKGRFTISRDNSKNTLYLQMNSLRAEDTAVYYCARSKIAFDYWGQGTLVTVSS VL: DIQMTQSPSSLSASVGDRVTITCRASQNIRSYLNWYQQKPGKAPKLLIYGRNKRPSGVPSRFSGSGSGTDFTLTISSLQPEDFATYYCQQSYENPLTFGQGTKVEIK",0.8
5,NRP1-26 (VHH) VHH: EVQLVESGGGLVQPGGSLRLSCAASGRTFRPYRMGWFRQAPGKEREWISTIYSNGHTYYADSVKGRFTISADNSKNTAYLQMNSLKPEDTAVYYCAAQRRWSQDWGQGTLVTVSS,0.9
6,NRP1-28 (VHH) VHH: EVQLVESGGGLVQPGGSLRLSCAASGFTRSYYTMGWFRQAPGKEREFVAAMNWSGSSTVYADSVKGRFTISADNSKNTAYLQMNSLKPEDTAVYYCAKDTGSPKNYYYYYGMDVWGQGTLVTVSS,33
7,NRP1-29 (VHH) VHH: EVQLVESGGGLVQPGGSLRLSCAASGFTLDNYAMGWFRQAPGKEREFVARITSGGDTTYYADSVKGRFTISADNSKNTAYLQMNSLKPEDTAVYYCARAYGRGTYDWGQGTLVTVSS,26
8,NRP1-30 (VHH) VHH: EVQLVESGGGLVQPGGSLRLSCAASGRTLSSYNMGWFRQAPGKEREFVARIWPGGGTTYADSVKGRFTISADNSKNTAYLQMNSLKPEDTAVYYCARDYFGSGSYYDWGQGTLVTVSS,40.2
9,NRP1-31 (VHH) VHH: EVQLVESGGGLVQPGGSLRLSCAASGLTFRRYDMGWFRQAPGKERELVAIKFSGGSTRYADSVKGRFTISADNSKNTAYLQMNSLKPEDTAVYYCATSSGRVPAALNWGQGTLVTVSS,5.7
10,NRP1-32 (VHH) VHH: EVQLVESGGGLVQPGGSLRLSCAASGLTFRRYDMGWFRQAPGKERELVAIIFSGGSTRYADSVKGRFTIIADNNKNTAYLQMNSLKPEDNAVYYCATSSGRVPAALNWGQGTLVTVSS,0.3
11,NRP1-34 (VHH) VHH: EVQLVESGGGLVQPGGSLRLSCAASGYTYRKYCMGWFRQAPGKEREWVAAISRSGNLKSYADSVKGRFTISADNSKNTAYLQMNSLKPEDTAVYYCAIKRWPVDTRRRRDMVVGCPGRDEYEWGQGTLVTVSS,612
12,NRP1-36 (VHH) VHH: EVQLVESGGGLVQPGGSLRLSCAASGFPVNRYSMGWFRQAPGKEREFVATITVGGSTYYADSVKGRFTISADNSKNTAYLQMNSLKPEDTAVYYCARQFGAWLGEVVGPMDVWGQGTLVTVSS,3
13,NRP1-38 (VHH) VHH: EVQLVESGGGLVQPGGSLRLSCAASGFTFGSTTMGWFRQAPGKEREFVATMRWSTGSTVYADSVKGRFTISADNSKNTAYLQMNSLKPEDTAVYYCAVRGDWWAYWTPWGQGTLVTVSS,10.5
14,NRP1-39 (VHH) VHH: EVQLVESGGGLVQPGGSLRLSCAASGRTFSGDVMGWFRQAPGKEREFVAAINYSGRSINYADSVKGRFTISADNSKNTAYLQMNSLKPEDTAVYYCARETLWLKRYWGQGTLVTVSS,5.6
15,NRP1-40 (VHH) VHH: EVQLVESGGGLVQPGGSLRLSCAASGSITSFNAMGWFRQAPGKERELVASINWSGARTLYADSVKGRFTISADNSKNTAYLQMNSLKPEDTAVYYCASARYYGSGRHFDYWGQGTLVTVSS,16.7
16,NRP1-42 (VHH) VHH: EVQLVESGGGLVQPGGSLRLSCAASGRTISNYDMGWFRQAPGKEREWVASINWGDGNTYYADSVKGRFTISADNSKNTAYLQMNSLKPEDTAVYYCARAPTYYYDSSGYYYAYWGQGTLVTVSS,4
17,NRP1-52 (VHH) VHH: EVQLVESGGGLVQPGGSLRLSCAASGFTFSWYPMGWFRQAPGKEREFVAAISPSGSTDYADSVKGRFTISADNSKNTAYLQMNSLKPEDTAVYYCARDPNYDFWSGYYSSEHYFDYWGQGTLVTVSS,10.7
18,NRP1-54 (VHH) VHH: EVQLVESGGGLVQPGGSLRLSCAASGIAFRIRTMGWFRQAPGKEREFVAGISRSGASTAYADSVKGRFTISADNSKNTAYLQMNSLKPEDTAVYYCAARRIVNVEGAYRDWGQGTLVTVSS,0.6
19,NRP1-55 (VHH) VHH: EVQLVESGGGLVQPGGSLRLSCAASGFTLDYYVMGWFRQAPGKEREWVAFISGSGSKFYADSVKGRFTISADNSKNTAYLQMNSLKPEDTAVYYCVIQHFWSGYDDDYWGQGTLVTVSS,2.7
20,NRP1-56 (VHH) VHH: EVQLVESGGGLVQPGGSLRLSCAASGRTFSSYRMGWFRQAPGKEREFVASIRSSGTTYADSVKGRFTISADNSKNTAYLQMNSLKPEDTAVYYCARDTLGRASSSTDWGQGTLVTVSS,5.4
21,NRP1-57 (VHH) VHH: EVQLVESGGGLVQPGGSLRLSCAASGFTFSNSGMGWFRQAPGKERELVARITRGGRTYADSVKGRFTISADNSKNTAYLQMNSLKPEDTAVYYCAARRIVNVEGAYRDWGQGTLVTVSS,0.1
22,NRP1-60 (VHH) VHH: EVQLVESGGGLVQPGGSLRLSCAASGNIFINNAMGWFRQAPGKERELVAAISGRSGNTYYADSVKGRFTISADNSKNTAYLQMNSLKPEDTAVYYCAARRIVNVEGAYRDWGQGTLVTVSS,1
23,NRP1-63 (VHH) VHH: EVQLVESGGGLVQPGGSLRLSCAASGTFGSYTMGWFRQAPGKERELVATIWWTFDAPYYADSVKGRFTISADNSKNTAYLQMNSLKPEDTAVYYCAAYQAGWGDWGQGTLVTVSS,8.3
24,NRP1-64 (VHH) VHH: EVQLVESGGGLVQPGGSLRLSCAASGSTFRGAAMGWFRQAPGKEREWVGTISSDGTTKYADSVKGRFTISADNSKNTAYLQMNSLKPEDTAVYYCAADRVLYYSDSRYYTGSNWGQGTLVTVSS,0.8
25,NRP1-66 (VHH) VHH: EVQLVESGGGLVQPGGSLRLSCAASGRTFRPYRMGWFRQAPGKERELVAAITSGTHKDYADSVKGRFTISADNSKNTAYLQMNSLKPEDTAVYYCAADYSGSYTSLWSRPERLWGQGTLVTVSS,1.1
26,NRP1-5 (VHH) VHH: EVQLVESGGGLVQPGGSLRLSCAASGNIDRLYVMGWFRQAPGKEREFVAAINWSSGTTVYADSVKGRFTISADNSKNTAYLQMNSLKPEDTAVYYCARSYSSLFRFDYWGQGTLVTVSS,14.8
27,NRP1-67 (VHH) VHH: EVQLVESGGGLVQPGGSLRLSCAASGLYLHSSAMGWFRQAPGKEREFVAAISSSDGSTEYADSVKGRFTISADNSKNTAYLQMNSLKPEDTAVYYCASVRYYDYWSGYYTPTHAGYFESWGQGTLVTVSS,2.1
28,NRP1-68 (VHH) VHH: EVQLVESGGGLVQPGGSLRLSCAASGNIFINNAMGWFRQAPGKERELVAAITSSSGRRWYADSVKGRFTISADNSKNTAYLQMNSLKPEDTAVYYCTTDRWYSSNWWGQGTLVTVSS,4.9
29,NRP1-69 (VHH) VHH: EVQLVESGGGLVQPGGSLRLSCAASGFNFNWYPMGWFRQAPGKEREWVGTINSGGSTSYADSVKGRFTISADNSKNTAYLQMNSLKPEDTAVYYCARLPPRGSYYYYYYGMDVWGQGTLVTVSS,8.2
30,NRP1-73 (VHH) VHH: EVQLVESGGGLVQPGGSLRLSCAASGFTFSGNWMGWFRQAPGKERELVAVILRGGSTNYADSVKGRFTISADNSKNTAYLQMNSLKPEDTAVYYCAVKIYSGSYSSPPGYNWGQGTLVTVSS,5.9
